Results as given in patent US20190077863A1 (AERPIO PHARMACEUTICALS, published 2019).

T1: Cynomolgus VE-PTP (Cyno PTP-β) containing first eight FN3 repeats with C-terminal His10 tag (Cyno Beta ½ … (cynomolgus, UniProt P23467 25-817 (human entry)))
T1 construct: Produced in HEK293 cells; it was not cut off; also called Cyno VE-PTP
T1 chain: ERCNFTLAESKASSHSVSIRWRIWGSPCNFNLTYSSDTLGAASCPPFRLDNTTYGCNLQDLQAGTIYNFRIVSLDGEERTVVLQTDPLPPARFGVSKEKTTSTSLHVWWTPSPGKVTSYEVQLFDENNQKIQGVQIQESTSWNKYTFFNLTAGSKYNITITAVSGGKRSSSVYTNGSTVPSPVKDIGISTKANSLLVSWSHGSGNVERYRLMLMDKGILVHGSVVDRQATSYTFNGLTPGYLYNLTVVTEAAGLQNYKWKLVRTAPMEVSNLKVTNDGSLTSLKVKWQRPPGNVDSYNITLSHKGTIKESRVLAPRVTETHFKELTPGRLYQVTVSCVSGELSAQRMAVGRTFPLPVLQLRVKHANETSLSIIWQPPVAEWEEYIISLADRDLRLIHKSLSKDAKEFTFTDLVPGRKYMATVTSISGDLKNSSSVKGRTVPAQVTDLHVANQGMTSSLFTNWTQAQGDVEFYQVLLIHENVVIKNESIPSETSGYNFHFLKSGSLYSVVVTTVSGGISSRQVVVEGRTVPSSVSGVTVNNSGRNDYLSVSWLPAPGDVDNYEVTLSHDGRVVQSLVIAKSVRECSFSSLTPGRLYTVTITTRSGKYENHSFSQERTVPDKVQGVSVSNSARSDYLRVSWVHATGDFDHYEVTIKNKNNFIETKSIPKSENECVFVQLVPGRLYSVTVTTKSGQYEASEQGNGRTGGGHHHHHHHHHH

T2: Human VE-PTP (HPTP-β) containing first eight FN3 repeats with C-terminal His6 tag (Human ½ VE-PTP ECD) (human, UniProt P23467 23-820)
T2 construct: Produced in HEK293 cells and purified by the His tag; it was not cut off; also called Human Beta ½ ECD
T2 sequence: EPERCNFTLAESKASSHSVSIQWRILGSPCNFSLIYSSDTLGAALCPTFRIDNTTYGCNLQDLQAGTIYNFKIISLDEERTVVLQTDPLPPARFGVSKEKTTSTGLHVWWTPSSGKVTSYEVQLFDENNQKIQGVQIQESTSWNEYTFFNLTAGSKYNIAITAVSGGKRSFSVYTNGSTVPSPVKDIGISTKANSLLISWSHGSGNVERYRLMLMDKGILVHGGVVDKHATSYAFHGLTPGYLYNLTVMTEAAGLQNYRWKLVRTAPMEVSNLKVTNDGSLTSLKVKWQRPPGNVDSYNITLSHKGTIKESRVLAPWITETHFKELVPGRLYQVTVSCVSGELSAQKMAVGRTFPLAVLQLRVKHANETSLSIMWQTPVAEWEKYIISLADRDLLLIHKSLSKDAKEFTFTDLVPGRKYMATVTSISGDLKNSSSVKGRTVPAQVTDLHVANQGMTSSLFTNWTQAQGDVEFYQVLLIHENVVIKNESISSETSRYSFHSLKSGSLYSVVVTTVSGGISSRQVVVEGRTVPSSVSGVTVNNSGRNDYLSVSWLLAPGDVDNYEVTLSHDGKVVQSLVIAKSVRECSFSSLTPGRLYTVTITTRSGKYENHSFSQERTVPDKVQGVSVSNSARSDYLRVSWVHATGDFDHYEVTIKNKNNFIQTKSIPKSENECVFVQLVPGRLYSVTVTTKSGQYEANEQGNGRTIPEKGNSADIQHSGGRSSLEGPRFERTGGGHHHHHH


Tests used:
[1] = target: T1, Cynomolgus VE-PTP (Cyno PTP-β) …; experiment: ELISA, coated antigen
Experimental: HPTP-β, cyno PTP-β, and HPTP-η proteins were coated onto ELISA plates in coating buffer (pH 9.4). Each protein was prepared as a 1 μg/mL protein stock in 50 mM carbonate-bicarbonate. The coated proteins were aliquoted at a volume of 100 μL/well into sterile, clear, polystyrene, flat bottom 96-well plates. The plates were incubated overnight at 4° C. After overnight incubation, the plates were washed 3× with 200 μL/well of 1×PBS-T (PBS with 0.05% Tween 20). The immunizing protein was human VE-PTP (HPTP-β). The plates were then blocked with 200 μL/well of 5% blotting grade blocker non-fat dry milk in PBS-T and incubated for 1 hr at room temperature.
Primary antibody samples were prepared for the humanized variants and the negative control, anti-hCD20-hIgG4S228P, using 1 μg/well in 5% blotting grade blocker non-fat dry milk in PBS. Samples were tested in triplicates. The Fab antibody fragments were treated as the IgG antibodies. The plates were then washed 3× with PBS-T and 100 μL of primary antibody preparation was added in each well. The plates were then incubated for 1 hr at room temperature.
Then, […] Ultra TMB-ELISA was added in each well, and the plate was allowed to develop for 5 min at room temperature. After 5 min, 50 μL of 2 M sulfuric acid was added to each well to stop the reaction. The plates were then analyzed on a plate reader at an absorbance wavelength of 450 nm.

[2] = target: T2, Human VE-PTP (HPTP-β) containing first …; experiment: SPR (Biacore 3000), antibody captured on anti-human IgG, antigen as analyte 100 nM (single concentration)
Experimental: (§1) Samples of each variant were further assessed by Biacore analysis to determine the binding affinity. Antibody binding experiments were performed on Biacore 3000™ at 25° C. Assay buffer: 10 mM HEPES buffer (pH 7.4), 150 mM NaCl, 3 mM EDTA, 0.05% P20 (polyoxyethylenesorbitan). […] Conjugation buffer: 10 mM sodium acetate buffer (pH 5). The flow rate used for capturing the ligand was 5 μL/min. The flow rate for the kinetic analysis was 50 μL/min. Flow cell 1 and […] of the CM5 chip were coated with maximum amounts of goat anti-human IgG. Approximately 150 RU of the test antibody was captured on flow cell 2, 3, and 4 as indicated. The antigen was flowed over the chip. Binding of the antigen to the antibodies was monitored in real time. The KD was determined from the observed kₒₙ and koff values.
A scouting analysis was performed using single analyte concentrations as indicated. At these concentrations, binding can be observed even if the ligand binding is weak. Flow cell 1 response was used for reference subtraction.

[3] = target: T2, Human VE-PTP (HPTP-β) containing first …; experiment: SPR (Biacore 3000), antibody captured on anti-human IgG, antigen as analyte 25-0 nM
Experimental: as §1

Binder	binding result [1]	Ka [2]	Kd [2]	koff [2]	kon [2]	Ka [3]	Kd [3]	koff [3]	kon [3]
humanized R15E6 variant HC2LC1 (antibody, human IgG4 S228P, kappa, V domains shown, Human IgG4 (S228P) / kappa, expressed in CHO cells; Signal peptides left out by range; also called VH2-VL1) VH: EVQLVESGGGLVQPGGSLRLSCAASGFTFNANAMNWVRQAPGKGLEWVGRIRTKSNNYATYYAGSVKDRFTISRDDSKNSLYLQMNSLKTEDTAVYYCVRDYYGSSAWITYWGQGTLVTVSS VL: DVVMTQSPSFLSASVGDRVTITCKASQHVGTAVAWYQQRPGKAPKLLIYWASTRHTGVPSRFSGSGSGTEFTLTISSLQPEDFATYFCQQYSSYPFTFGGGTKLEIKR	no binding (tested: <=0.2; 1 µg/well)	7.24e+07 M⁻¹	13.8 nM	0.000688 s⁻¹	49800 M⁻¹ s⁻¹				
humanized R15E6 variant HC2LC2 (antibody, human IgG4 S228P, kappa, V domains shown, Human IgG4 (S228P) / kappa, expressed in CHO cells; Signal peptides left out by range; also called VH2-VL2) VH: EVQLVESGGGLVQPGGSLRLSCAASGFTFNANAMNWVRQAPGKGLEWVGRIRTKSNNYATYYAGSVKDRFTISRDDSKNSLYLQMNSLKTEDTAVYYCVRDYYGSSAWITYWGQGTLVTVSS VL: DIVMTQSPDSLAVSLGERATINCKASQHVGTAVAWYQQKPGQPPKLLIYWASTRHTGVPDRFSGSGSGTDFTLTISSLQAEDVAVYYCQQYSSYPFTFGQGTKLEIKR	no binding (tested: <=0.2; 1 µg/well)	2.85e+08 M⁻¹	3.51 nM	0.000524 s⁻¹	149000 M⁻¹ s⁻¹	1.98e+07 M⁻¹	50.6 nM	0.00215 s⁻¹	42500 M⁻¹ s⁻¹
humanized R15E6 variant HC1LC4 (antibody, human IgG4 S228P, kappa, V domains shown, Human IgG4 (S228P) / kappa, expressed in CHO cells; Signal peptides left out by range; also called VH1-VL4) VH: EVQLVESGGGLVQPGGSLKLSCAASGFTFNANAMNWVRQASGKGLEWVGRIRTKSNNYATYYAGSVKDRFTISRDDSKNTAYLQMNSLKTEDTAAYYCVRDYYGSSAWITYWGQGTLVTVSS VL: DIVMTQSPDSLAVSLGERATINCKASQHVGTAVAWYQQKPEQPPKLLIYWASTRHTGVPDRFSGSGSGTDFTLTISSLQAEDVAVYYCQQYSSYPFTFGGGTKVEIKR	no binding (tested: <=0.2; 1 µg/well)	2.26e+08 M⁻¹	4.42 nM	0.000792 s⁻¹	179000 M⁻¹ s⁻¹				
humanized R15E6 variant HC2LC3 (antibody, human IgG4 S228P, kappa, V domains shown, Human IgG4 (S228P) / kappa, expressed in CHO cells; Signal peptides left out by range; also called VH2-VL3) VH: EVQLVESGGGLVQPGGSLRLSCAASGFTFNANAMNWVRQAPGKGLEWVGRIRTKSNNYATYYAGSVKDRFTISRDDSKNSLYLQMNSLKTEDTAVYYCVRDYYGSSAWITYWGQGTLVTVSS VL: DIQMTQSPFSLSASVGDRVTITCKASQHVGTAVAWYQQKPGKAPKLLIYWASTRHTGVPSRFSGSGSGTDFTLTISSLQPEDFATYFCQQYSSYPFTFGGGTKLEIKR	no binding (tested: <=0.2; 1 µg/well)	3.36e+08 M⁻¹	2.98 nM	0.000662 s⁻¹	222000 M⁻¹ s⁻¹	6.75e+08 M⁻¹	1.48 nM	0.00123 s⁻¹	890000 M⁻¹ s⁻¹
humanized R15E6 variant HC3LC4 (antibody, human IgG4 S228P, kappa, V domains shown, Human IgG4 (S228P) / kappa, expressed in CHO cells; Signal peptides left out by range; also called VH3-VL4) VH: EVQLVESGGGLVQPGRSLRLSCTASGFTFNANAMNWVRQAPGKGLEWVGRIRTKSNNYATYYAGSVKDRFTISRDDSKNIAYLQMNSLKTEDTAVYYCVRDYYGSSAWITYWGQGTLVTVSS VL: DIVMTQSPDSLAVSLGERATINCKASQHVGTAVAWYQQKPEQPPKLLIYWASTRHTGVPDRFSGSGSGTDFTLTISSLQAEDVAVYYCQQYSSYPFTFGGGTKVEIKR	no binding (tested: <=0.2; 1 µg/well)	1.59e+08 M⁻¹	6.29 nM	0.000887 s⁻¹	139000 M⁻¹ s⁻¹	1.23e+08 M⁻¹	8.14 nM	0.00109 s⁻¹	134000 M⁻¹ s⁻¹
humanized R15E6 variant HC2LC4 (antibody, human IgG4 S228P, kappa, V domains shown, Human IgG4 (S228P) / kappa, expressed in CHO cells; Signal peptides left out by range; also called VH2-VL4) VH: EVQLVESGGGLVQPGGSLRLSCAASGFTFNANAMNWVRQAPGKGLEWVGRIRTKSNNYATYYAGSVKDRFTISRDDSKNSLYLQMNSLKTEDTAVYYCVRDYYGSSAWITYWGQGTLVTVSS VL: DIVMTQSPDSLAVSLGERATINCKASQHVGTAVAWYQQKPEQPPKLLIYWASTRHTGVPDRFSGSGSGTDFTLTISSLQAEDVAVYYCQQYSSYPFTFGGGTKVEIKR	no binding (tested: <=0.2; 1 µg/well)	7.72e+07 M⁻¹	13 nM	0.000668 s⁻¹	51500 M⁻¹ s⁻¹				
humanized R15E6 variant HC1LC2 (antibody, human IgG4 S228P, kappa, V domains shown, Human IgG4 (S228P) / kappa, expressed in CHO cells; Signal peptides left out by range; also called VH1-VL2) VH: EVQLVESGGGLVQPGGSLKLSCAASGFTFNANAMNWVRQASGKGLEWVGRIRTKSNNYATYYAGSVKDRFTISRDDSKNTAYLQMNSLKTEDTAAYYCVRDYYGSSAWITYWGQGTLVTVSS VL: DIVMTQSPDSLAVSLGERATINCKASQHVGTAVAWYQQKPGQPPKLLIYWASTRHTGVPDRFSGSGSGTDFTLTISSLQAEDVAVYYCQQYSSYPFTFGQGTKLEIKR	no binding (tested: <=0.2; 1 µg/well)	3.27e+08 M⁻¹	3.06 nM	0.000769 s⁻¹	251000 M⁻¹ s⁻¹				
mouse/human chimeric antibody HC0LC0 (antibody, human IgG4 S228P, kappa, V domains shown, Murine variable domains of R15E6 on human IgG4 (S228P) and kappa constant domains, expressed in CHO cells; also called VH0-VL0) VH: EVQLVETGGGLVQPKGSMKLSCAASGFTFNANAMNWIRQAPGKGLEWVARIRTKSNNYATYYAGSVKDRFTISRDDAQNMLYLQMNDLKTEDTAMYYCVRDYYGSSAWITYWGQGTLVTVSA VL: DIVMTQSHKFMSTSVGDRVSITCKASQHVGTAVAWYQQKPDQSPKQLIYWASTRHTGVPDRFTGSGSGTDFTLTISNVQSEDLADYFCQQYSSYPFTFGSGTKLEIKR	no binding (tested: <=0.2; 1 µg/well)	1.61e+08 M⁻¹	6.22 nM	0.000417 s⁻¹	67100 M⁻¹ s⁻¹				
